{"source": "paper PMC9413441", "target": "SNAP-Protein G", "assay": "titration on hydrogel beads, read by flow cytometry of the beads; SNAP-Protein G covalently immobilised on PHD beads (20 um, 50 uM BG); titration series of fluorescently labelled mouse IgG2b at room temperature with rolling for the indicated times, then washed; mean of triplicates fitted to fluorescence = (fluorescencemax x [IgG])/(KD + [IgG])", "data": [{"substance": "fluorescently labeled mouse IgG2b (antibody)", "values": [{"measurement": "Kd", "value": 30.1, "unit": "nM"}]}]}
